The values below come from patent US20230021388A1 (VELOSBIO, published 2023).

A word on the Kd: it is the constant that tells how readily two partners part at equilibrium.

First the molecules themselves.
B1: Ab1 Fab variant H2 Y70I (Fab, V domains shown)
VH: QVQLQESGPGLVKPSQTLSLTCTVSGYAFTAYNIHWVRQAPGQGLEWMGSFDPYDGGSSINQKFKDRLTISKDTSKNQVVLTMTNMDPVDTATYYCARGWYYFDYWGHGTLVTVSS
VL: DIVMTQTPLSLPVTPGEPASISCRASKSISKYLAWYQQKPGQAPRLLIYSGSTLQSGIPPRFSGSGYGTDFTLTINNIESEDAAYYFCQQHDESPYTFGEGTKVEIK
notes: Fab
B2: Ab1 Fab variant L1 I31V (Fab, V domains shown)
VH: QVQLQESGPGLVKPSQTLSLTCTVSGYAFTAYNIHWVRQAPGQGLEWMGSFDPYDGGSSYNQKFKDRLTISKDTSKNQVVLTMTNMDPVDTATYYCARGWYYFDYWGHGTLVTVSS
VL: DIVMTQTPLSLPVTPGEPASISCRASKSVSKYLAWYQQKPGQAPRLLIYSGSTLQSGIPPRFSGSGYGTDFTLTINNIESEDAAYYFCQQHDESPYTFGEGTKVEIK
notes: Fab
B3: Ab1 Fab variant L1 L41M (Fab, V domains shown)
VH: QVQLQESGPGLVKPSQTLSLTCTVSGYAFTAYNIHWVRQAPGQGLEWMGSFDPYDGGSSYNQKFKDRLTISKDTSKNQVVLTMTNMDPVDTATYYCARGWYYFDYWGHGTLVTVSS
VL: DIVMTQTPLSLPVTPGEPASISCRASKSISKYMAWYQQKPGQAPRLLIYSGSTLQSGIPPRFSGSGYGTDFTLTINNIESEDAAYYFCQQHDESPYTFGEGTKVEIK
notes: Fab
B4: Ab1 Fab variant L1 S32I (Fab, V domains shown)
VH: QVQLQESGPGLVKPSQTLSLTCTVSGYAFTAYNIHWVRQAPGQGLEWMGSFDPYDGGSSYNQKFKDRLTISKDTSKNQVVLTMTNMDPVDTATYYCARGWYYFDYWGHGTLVTVSS
VL: DIVMTQTPLSLPVTPGEPASISCRASKSIIKYLAWYQQKPGQAPRLLIYSGSTLQSGIPPRFSGSGYGTDFTLTINNIESEDAAYYFCQQHDESPYTFGEGTKVEIK
notes: Fab
B5: Ab1 Fab variant L2 L70K (Fab, V domains shown)
VH: QVQLQESGPGLVKPSQTLSLTCTVSGYAFTAYNIHWVRQAPGQGLEWMGSFDPYDGGSSYNQKFKDRLTISKDTSKNQVVLTMTNMDPVDTATYYCARGWYYFDYWGHGTLVTVSS
VL: DIVMTQTPLSLPVTPGEPASISCRASKSISKYLAWYQQKPGQAPRLLIYSGSTKQSGIPPRFSGSGYGTDFTLTINNIESEDAAYYFCQQHDESPYTFGEGTKVEIK
notes: Fab; also called SGSTKQS
B6: Ab1 Fab variant L2 Q71V (Fab, V domains shown)
VH: QVQLQESGPGLVKPSQTLSLTCTVSGYAFTAYNIHWVRQAPGQGLEWMGSFDPYDGGSSYNQKFKDRLTISKDTSKNQVVLTMTNMDPVDTATYYCARGWYYFDYWGHGTLVTVSS
VL: DIVMTQTPLSLPVTPGEPASISCRASKSISKYLAWYQQKPGQAPRLLIYSGSTLVSGIPPRFSGSGYGTDFTLTINNIESEDAAYYFCQQHDESPYTFGEGTKVEIK
notes: Fab; also called SGSTLVS
B7: Ab1 Fab variant L2 S68R (Fab, V domains shown)
VH: QVQLQESGPGLVKPSQTLSLTCTVSGYAFTAYNIHWVRQAPGQGLEWMGSFDPYDGGSSYNQKFKDRLTISKDTSKNQVVLTMTNMDPVDTATYYCARGWYYFDYWGHGTLVTVSS
VL: DIVMTQTPLSLPVTPGEPASISCRASKSISKYLAWYQQKPGQAPRLLIYSGRTLQSGIPPRFSGSGYGTDFTLTINNIESEDAAYYFCQQHDESPYTFGEGTKVEIK
notes: Fab; also called SGRTLQS
B8: Ab1 Fab variant L1 S30P (Fab, V domains shown)
VH: QVQLQESGPGLVKPSQTLSLTCTVSGYAFTAYNIHWVRQAPGQGLEWMGSFDPYDGGSSYNQKFKDRLTISKDTSKNQVVLTMTNMDPVDTATYYCARGWYYFDYWGHGTLVTVSS
VL: DIVMTQTPLSLPVTPGEPASISCRASKPISKYLAWYQQKPGQAPRLLIYSGSTLQSGIPPRFSGSGYGTDFTLTINNIESEDAAYYFCQQHDESPYTFGEGTKVEIK
notes: Fab
B9: Ab1 Fab variant L1 S32A (Fab, V domains shown)
VH: QVQLQESGPGLVKPSQTLSLTCTVSGYAFTAYNIHWVRQAPGQGLEWMGSFDPYDGGSSYNQKFKDRLTISKDTSKNQVVLTMTNMDPVDTATYYCARGWYYFDYWGHGTLVTVSS
VL: DIVMTQTPLSLPVTPGEPASISCRASKSIAKYLAWYQQKPGQAPRLLIYSGSTLQSGIPPRFSGSGYGTDFTLTINNIESEDAAYYFCQQHDESPYTFGEGTKVEIK
notes: Fab
B10: Ab1 Fab variant L1 S30F (Fab, V domains shown)
VH: QVQLQESGPGLVKPSQTLSLTCTVSGYAFTAYNIHWVRQAPGQGLEWMGSFDPYDGGSSYNQKFKDRLTISKDTSKNQVVLTMTNMDPVDTATYYCARGWYYFDYWGHGTLVTVSS
VL: DIVMTQTPLSLPVTPGEPASISCRASKFISKYLAWYQQKPGQAPRLLIYSGSTLQSGIPPRFSGSGYGTDFTLTINNIESEDAAYYFCQQHDESPYTFGEGTKVEIK
notes: Fab
B11: Ab1 Fab variant L1 S30A (Fab, V domains shown)
VH: QVQLQESGPGLVKPSQTLSLTCTVSGYAFTAYNIHWVRQAPGQGLEWMGSFDPYDGGSSYNQKFKDRLTISKDTSKNQVVLTMTNMDPVDTATYYCARGWYYFDYWGHGTLVTVSS
VL: DIVMTQTPLSLPVTPGEPASISCRASKAISKYLAWYQQKPGQAPRLLIYSGSTLQSGIPPRFSGSGYGTDFTLTINNIESEDAAYYFCQQHDESPYTFGEGTKVEIK
notes: Fab
B12: Ab1 Fab variant H2 Y70V (Fab, V domains shown)
VH: QVQLQESGPGLVKPSQTLSLTCTVSGYAFTAYNIHWVRQAPGQGLEWMGSFDPYDGGSSVNQKFKDRLTISKDTSKNQVVLTMTNMDPVDTATYYCARGWYYFDYWGHGTLVTVSS
VL: DIVMTQTPLSLPVTPGEPASISCRASKSISKYLAWYQQKPGQAPRLLIYSGSTLQSGIPPRFSGSGYGTDFTLTINNIESEDAAYYFCQQHDESPYTFGEGTKVEIK
notes: Fab
B13: Ab1 Fab variant L1 K29E (Fab, V domains shown)
VH: QVQLQESGPGLVKPSQTLSLTCTVSGYAFTAYNIHWVRQAPGQGLEWMGSFDPYDGGSSYNQKFKDRLTISKDTSKNQVVLTMTNMDPVDTATYYCARGWYYFDYWGHGTLVTVSS
VL: DIVMTQTPLSLPVTPGEPASISCRASESISKYLAWYQQKPGQAPRLLIYSGSTLQSGIPPRFSGSGYGTDFTLTINNIESEDAAYYFCQQHDESPYTFGEGTKVEIK
notes: Fab
B14: Ab1 Fab variant L1 K29S (Fab, V domains shown)
VH: QVQLQESGPGLVKPSQTLSLTCTVSGYAFTAYNIHWVRQAPGQGLEWMGSFDPYDGGSSYNQKFKDRLTISKDTSKNQVVLTMTNMDPVDTATYYCARGWYYFDYWGHGTLVTVSS
VL: DIVMTQTPLSLPVTPGEPASISCRASSSISKYLAWYQQKPGQAPRLLIYSGSTLQSGIPPRFSGSGYGTDFTLTINNIESEDAAYYFCQQHDESPYTFGEGTKVEIK
notes: Fab
B15: Ab1 Fab variant L2 L70H (Fab, V domains shown)
VH: QVQLQESGPGLVKPSQTLSLTCTVSGYAFTAYNIHWVRQAPGQGLEWMGSFDPYDGGSSYNQKFKDRLTISKDTSKNQVVLTMTNMDPVDTATYYCARGWYYFDYWGHGTLVTVSS
VL: DIVMTQTPLSLPVTPGEPASISCRASKSISKYLAWYQQKPGQAPRLLIYSGSTHQSGIPPRFSGSGYGTDFTLTINNIESEDAAYYFCQQHDESPYTFGEGTKVEIK
notes: Fab; also called SGSTHQS
B16: Ab1 Fab variant L1 S30H (Fab, V domains shown)
VH: QVQLQESGPGLVKPSQTLSLTCTVSGYAFTAYNIHWVRQAPGQGLEWMGSFDPYDGGSSYNQKFKDRLTISKDTSKNQVVLTMTNMDPVDTATYYCARGWYYFDYWGHGTLVTVSS
VL: DIVMTQTPLSLPVTPGEPASISCRASKHISKYLAWYQQKPGQAPRLLIYSGSTLQSGIPPRFSGSGYGTDFTLTINNIESEDAAYYFCQQHDESPYTFGEGTKVEIK
notes: Fab
B17: Ab1 Fab variant L1 L41V (Fab, V domains shown)
VH: QVQLQESGPGLVKPSQTLSLTCTVSGYAFTAYNIHWVRQAPGQGLEWMGSFDPYDGGSSYNQKFKDRLTISKDTSKNQVVLTMTNMDPVDTATYYCARGWYYFDYWGHGTLVTVSS
VL: DIVMTQTPLSLPVTPGEPASISCRASKSISKYVAWYQQKPGQAPRLLIYSGSTLQSGIPPRFSGSGYGTDFTLTINNIESEDAAYYFCQQHDESPYTFGEGTKVEIK
notes: Fab
B18: Ab1 Fab variant L1 A25P (Fab, V domains shown)
VH: QVQLQESGPGLVKPSQTLSLTCTVSGYAFTAYNIHWVRQAPGQGLEWMGSFDPYDGGSSYNQKFKDRLTISKDTSKNQVVLTMTNMDPVDTATYYCARGWYYFDYWGHGTLVTVSS
VL: DIVMTQTPLSLPVTPGEPASISCRPSKSISKYLAWYQQKPGQAPRLLIYSGSTLQSGIPPRFSGSGYGTDFTLTINNIESEDAAYYFCQQHDESPYTFGEGTKVEIK
notes: Fab
B19: Ab1 Fab variant L2 Q71T (Fab, V domains shown)
VH: QVQLQESGPGLVKPSQTLSLTCTVSGYAFTAYNIHWVRQAPGQGLEWMGSFDPYDGGSSYNQKFKDRLTISKDTSKNQVVLTMTNMDPVDTATYYCARGWYYFDYWGHGTLVTVSS
VL: DIVMTQTPLSLPVTPGEPASISCRASKSISKYLAWYQQKPGQAPRLLIYSGSTLTSGIPPRFSGSGYGTDFTLTINNIESEDAAYYFCQQHDESPYTFGEGTKVEIK
notes: Fab; also called SGSTLTS
B20: Ab1 Fab variant L2 S68G (Fab, V domains shown)
VH: QVQLQESGPGLVKPSQTLSLTCTVSGYAFTAYNIHWVRQAPGQGLEWMGSFDPYDGGSSYNQKFKDRLTISKDTSKNQVVLTMTNMDPVDTATYYCARGWYYFDYWGHGTLVTVSS
VL: DIVMTQTPLSLPVTPGEPASISCRASKSISKYLAWYQQKPGQAPRLLIYSGGTLQSGIPPRFSGSGYGTDFTLTINNIESEDAAYYFCQQHDESPYTFGEGTKVEIK
notes: Fab; also called SGGTLQS

The target in this assay is T1, recombinant human ROR1 extracellular domain (human, UniProt Q01973 30-406).
T1 construct: biotinylated for the filter lifts; also called huROR1-ECD; human ROR1-ECD
T1 sequence (Q01973 30-406 limits assumed): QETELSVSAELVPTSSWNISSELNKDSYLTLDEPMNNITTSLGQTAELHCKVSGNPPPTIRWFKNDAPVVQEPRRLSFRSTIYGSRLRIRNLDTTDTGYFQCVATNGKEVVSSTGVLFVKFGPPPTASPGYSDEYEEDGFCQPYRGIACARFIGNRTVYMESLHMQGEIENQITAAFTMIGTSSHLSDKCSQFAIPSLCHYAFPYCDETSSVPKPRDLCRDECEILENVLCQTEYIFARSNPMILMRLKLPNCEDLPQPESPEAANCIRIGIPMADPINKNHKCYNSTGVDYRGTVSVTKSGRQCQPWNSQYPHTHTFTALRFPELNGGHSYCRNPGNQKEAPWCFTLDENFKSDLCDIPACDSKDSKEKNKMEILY
The assay is described as follows: ELISA, soluble Fab on coated huROR1-ECD. Here is the method: The previously described filter lift assay provides a visual, qualitative assessment of antigen binding (Example 1). In order to assess the ROR1 binding activity of Ab1 Fab in a more quantitative fashion, an ELISA assay was developed. A 96-well Costar-3366 plate was coated with 50 μL/well of 1 μg/mL human ROR1-ECD (ACROBiosystems, cat. #RO1-H522y) in PBS overnight at 4° C. The plate was rinsed once with PBS-T and blocked with 100 μL/well of 5% M-P for 1 h at 25° C. Fab samples were serially diluted 3-fold using 5% M-P and 50 μL/well was incubated for 1 h at 25° C. The plate was washed three times with PBS-T and 50 μL/well anti-human kappa, and HRP conjugate (Southern Biotech, cat. #2060-05) diluted 10,000-fold in 5% M-P was added for 1 h at 25° C. In certain assays (extended wash format), the plate was placed in large volumes (up to 1 L) of PBS-T and incubated, with mixing, for 2-5 h prior to the addition of anti-human kappa, HRP conjugate. The plate was washed three times with PBS-T, and developed with 50 μL/well 1-Step Ultra TMB-ELISA (Thermo Scientific, cat. #34028). The reaction was terminated by the addition of 2 N H2504 and the A450 was determined using a Spectramax plate reader.
In general terms: An ELISA detects its analyte on a solid surface through an enzyme-linked reagent.
Turning to B1, the equilibrium dissociation constant (Kd) came to 1.7 nM.

With B2, the dissociation constant Kd turned out to be 2.8 nM.

On to B3, for which the dissociation constant (Kd) was 1.3 nM.

With B4, the equilibrium dissociation constant (Kd) was determined as 1.9 nM.

For B5, the Kd came out at 1.5 nM.

For B6, the Kd is 1.3 nM.

On to B7, for which the equilibrium dissociation constant (Kd) came out at 11 nM.

Regarding B8, the Kd came to 16 nM.

Consider B9, for which the Kd came to 1.1 nM.

Take B10: the Kd is 18 nM.

For B11, the dissociation constant Kd was 1.5 nM.

For B12, the Kd was determined as 1.5 nM.

With B13, the Kd stood at 1.2 nM.

Take B14: the dissociation constant (Kd) is 0.9 nM.

As to B15, the Kd was found to be 2.3 nM.

On to B16, for which the Kd was 1.4 nM.

Consider B17, for which the dissociation constant (Kd) came to 1.1 nM.

With B18, the dissociation constant (Kd) came out at 0.7 nM.

For the molecule B19, the Kd is 1.1 nM.

For B20, the Kd came to 1.6 nM.
